According to PMC12084609, “Structural insights into small-molecule agonist recognition and activation of complement receptor C3aR” (The EMBO Journal, 2025):
Where a chain is given by its changes, count along the chain named. “And” between values parts separate entries of the source, which are not always exact repeats. Equal values may be shown once.

Tests used:
Assay type in all cases: cell-based
[1] = target: T1, C3aR M106^3.36A (Homo sapiens, UniProt Q16581, M106A); assay: GloSensor-based cAMP assay, C3aR mutant M106A; details: for cAMP response (% Forskolin): single replicates
T1 construct: expressed in transfected cells; host or cells: HEK293T
T1 sequence (Q16581 1-482 M106A): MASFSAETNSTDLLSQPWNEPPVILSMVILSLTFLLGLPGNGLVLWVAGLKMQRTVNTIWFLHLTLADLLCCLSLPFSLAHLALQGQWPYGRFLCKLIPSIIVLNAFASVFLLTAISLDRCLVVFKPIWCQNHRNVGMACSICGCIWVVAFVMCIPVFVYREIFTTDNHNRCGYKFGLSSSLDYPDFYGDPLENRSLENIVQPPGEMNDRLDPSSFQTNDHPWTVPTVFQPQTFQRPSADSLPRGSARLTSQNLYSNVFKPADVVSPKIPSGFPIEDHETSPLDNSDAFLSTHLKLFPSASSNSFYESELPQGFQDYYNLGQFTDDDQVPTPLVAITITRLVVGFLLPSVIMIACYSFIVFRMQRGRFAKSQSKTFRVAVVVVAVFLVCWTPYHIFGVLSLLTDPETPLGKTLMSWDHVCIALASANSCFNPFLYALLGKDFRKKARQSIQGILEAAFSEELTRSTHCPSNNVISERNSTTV
Method: (§1) HEK293T cells were seeded on 6-well plates (NEST) and transfected with pGlosensor™-22F plasmids (Promega) and pcDNA3.1 plasmids encoding C3aR or its mutants an with N-terminal FLAG tag. After 48 h, cells were detached with Accutase solution (Sigma-Aldrich) and washed with PBS, and resuspended in assay buffer (CO2-independent medium with 0.5 mg mL^−1D-luciferin). 100,000–200,000 cells were seeded on 96-well white bottom plates (SPL) and incubated at 37 °C for 45 min followed by 45 min incubation at room temperature. After 90 min of incubation, basal luminescence signals were recorded. In total, 25 μl of test ligand with various concentrations and 1 μM Forskolin (Sigma-Aldrich) were treated to the cells and luminescence signals were measured by Tristar 2 LB 942 multimode reader (Berthold). […] Relative luminescence unit (%) was calculated with the signal of wells treated with vehicle as 0% and the signal of wells treated with 1 μM Forskolin as 100% (DiRaddo et al, [2014]). Nonlinear regression was performed using a three-parameter logistic equation.

[2] = target: T2, C3aR P99^3.29A (Homo sapiens, UniProt Q16581, P99A); assay: GloSensor-based cAMP assay, C3aR mutant P99A; details: for cAMP response (% Forskolin): P993.29A, single replicates
T2 construct: expressed in transfected cells; host or cells: HEK293T
T2 sequence (Q16581 1-482 P99A): T1 sequence (Q16581 1-482 M106A) with P99A, A106M
Method: as §1

[3] = target: C3aR (Homo sapiens, UniProt Q16581); assay: Gi recruitment BRET assay (C3aR-eYFP / Gαi-Rluc8, HEK293T); details: for ΔBRET (ligand-vehicle): individual replicates
Method: HEK293T cells were seeded on 6-well plates (NEST) and transfected with pcDNA3.1 plasmids encoding C3aR-eYFP, Gαi-Rluc8, Gβ1, and Gγ2 with a ratio of 5:1:1:1. After 48 h, cells were harvested and resuspended with in PBS. Cells were treated with test ligand with various concentrations and seeded on 96-well white bottom plates (SPL). After 3 min incubation at 37 °C, coelenterazine h (Nanolight) was added with a final concentration of 10 μM. Luminescence and fluorescence were measured using a Tristar 2 LB 942 multimode reader (Berthold).

[4] = target: T3, C3aR S26^1.35A (Homo sapiens, UniProt Q16581, S26A); assay: GloSensor-based cAMP assay, C3aR mutant S26A; details: for cAMP response (% Forskolin): S261.35A, single replicates
T3 construct: expressed in transfected cells; host or cells: HEK293T
T3 sequence (Q16581 1-482 S26A): T1 sequence (Q16581 1-482 M106A) with S26A, A106M
Method: as §1

[5] = Dunnett's multiple comparisons test, WT minus mutant

Sequence of C3aR (Q16581 whole entry): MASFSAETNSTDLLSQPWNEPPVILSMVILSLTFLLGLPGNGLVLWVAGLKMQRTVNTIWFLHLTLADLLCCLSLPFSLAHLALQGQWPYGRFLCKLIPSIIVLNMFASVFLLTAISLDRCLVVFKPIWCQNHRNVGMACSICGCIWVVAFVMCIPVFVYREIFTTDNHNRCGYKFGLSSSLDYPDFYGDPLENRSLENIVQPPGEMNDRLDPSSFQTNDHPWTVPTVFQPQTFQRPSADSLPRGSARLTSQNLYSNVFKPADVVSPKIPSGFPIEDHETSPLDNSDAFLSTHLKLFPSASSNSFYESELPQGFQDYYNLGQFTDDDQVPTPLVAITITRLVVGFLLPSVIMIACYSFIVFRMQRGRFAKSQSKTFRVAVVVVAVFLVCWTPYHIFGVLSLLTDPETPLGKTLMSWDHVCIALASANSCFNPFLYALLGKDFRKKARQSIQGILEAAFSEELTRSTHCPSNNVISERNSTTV
Sequence of C3aR (P63096 2-354 partner limits assumed): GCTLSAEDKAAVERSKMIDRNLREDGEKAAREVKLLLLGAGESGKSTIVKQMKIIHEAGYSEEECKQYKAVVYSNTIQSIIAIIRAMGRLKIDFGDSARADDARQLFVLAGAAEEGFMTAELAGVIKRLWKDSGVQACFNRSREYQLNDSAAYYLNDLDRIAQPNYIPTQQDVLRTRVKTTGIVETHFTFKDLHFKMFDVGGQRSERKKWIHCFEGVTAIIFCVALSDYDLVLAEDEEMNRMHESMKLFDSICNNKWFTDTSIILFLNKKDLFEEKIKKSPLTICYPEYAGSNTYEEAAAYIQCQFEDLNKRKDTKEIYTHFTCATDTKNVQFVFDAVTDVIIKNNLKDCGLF
Sequence of C3aR (P62873 2-340 partner limits assumed): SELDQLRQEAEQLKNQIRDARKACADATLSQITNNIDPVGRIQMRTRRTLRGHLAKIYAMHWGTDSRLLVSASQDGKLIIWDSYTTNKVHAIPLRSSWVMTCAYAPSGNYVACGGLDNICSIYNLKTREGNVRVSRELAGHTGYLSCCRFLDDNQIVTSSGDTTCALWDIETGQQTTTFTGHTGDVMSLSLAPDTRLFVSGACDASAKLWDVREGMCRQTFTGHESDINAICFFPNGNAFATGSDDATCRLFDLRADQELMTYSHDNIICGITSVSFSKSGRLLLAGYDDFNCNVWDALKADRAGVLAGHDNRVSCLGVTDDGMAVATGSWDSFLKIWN
Sequence of C3aR (P59768 2-68 partner limits assumed): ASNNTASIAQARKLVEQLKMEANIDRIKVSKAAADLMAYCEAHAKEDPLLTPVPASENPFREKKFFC

C3a: anaphylatoxin C3a, natural peptide ligand of C3aR (a 77-amino acid peptide), Sigma-Aldrich
Mean Diff. of pIC50, WT vs. M106A [1, 5]: 0.034
cAMP response (% Forskolin) ([1]; M106A, Log[C3a (M)] -7): 8.75 % Forskolin and 12.90 % Forskolin and 9.09 % Forskolin
cAMP response (% Forskolin) ([1]; M106A, Log[C3a (M)] -8): 9.11 % Forskolin and 12.58 % Forskolin and 9.15 % Forskolin
cAMP response (% Forskolin) ([1]; M106A, Log[C3a (M)] -9): 42.52 % Forskolin and 48.08 % Forskolin and 24.26 % Forskolin
cAMP response (% Forskolin) ([1]; M106A, Log[C3a (M)] -10): 70.86 % Forskolin and 84.09 % Forskolin and 59.73 % Forskolin
cAMP response (% Forskolin) ([1]; M106A, Log[C3a (M)] -11): 100.00 % Forskolin and 94.62 % Forskolin and 93.38 % Forskolin
cAMP response (% Forskolin) ([1]; M106A, Log[C3a (M)] -12): 103.69 % Forskolin and 97.63 % Forskolin and 101.57 % Forskolin
ΔpIC50 ± SE of Diff. ([1]; M106^3.36A relative to WT C3aR): -0.03 ± 0.03
pIC50 (Replicate) ([1]; M106^3.36A, individual replicates): 8.59 and 8.68 and 8.47 and 8.31
cAMP response (% Forskolin) ([1]; M1063.36A, Log[C3a (M)] -7): 12.14 % Forskolin and 11.95 % Forskolin and 11.63 % Forskolin and 13.11 % Forskolin
cAMP response (% Forskolin) ([1]; M1063.36A, Log[C3a (M)] -8): 15.30 % Forskolin and 16.36 % Forskolin and 17.61 % Forskolin and 30.65 % Forskolin
cAMP response (% Forskolin) ([1]; M1063.36A, Log[C3a (M)] -9): 79.42 % Forskolin and 72.88 % Forskolin and 85.10 % Forskolin and 95.05 % Forskolin
cAMP response (% Forskolin) ([1]; M1063.36A, Log[C3a (M)] -10): 93.61 % Forskolin and 101.94 % Forskolin and 98.48 % Forskolin and 102.99 % Forskolin
cAMP response (% Forskolin) ([1]; M1063.36A, Log[C3a (M)] -11): 97.40 % Forskolin and 101.43 % Forskolin and 95.22 % Forskolin and 99.89 % Forskolin
cAMP response (% Forskolin) ([1]; M1063.36A, Log[C3a (M)] -12): 100.17 % Forskolin and 94.23 % Forskolin and 92.07 % Forskolin and 95.27 % Forskolin
Mean Diff. of pIC50, WT vs. P99A [2, 5]: 0.364
ΔpIC50 ± SE of Diff. ([2]; P99^3.29A relative to WT C3aR): -0.36 ± 0.06
IC50 ([2]; P99^3.29A, dose-response plot, read-out: IC50): 6.44 nM
pIC50 (Replicate) ([2]; P99^3.29A, individual replicates): 8.35 and 8.23 and 8.15
pIC50 ± SEM (Mean) ([2]; P99^3.29A, mean of independent experiments): 8.18
cAMP response (% Forskolin) ([2]; Log[C3a (M)] -7): 12.82 % Forskolin and 13.55 % Forskolin and 15.36 % Forskolin and 12.84 % Forskolin
cAMP response (% Forskolin) ([2]; Log[C3a (M)] -8): 28.00 % Forskolin and 35.91 % Forskolin and 53.45 % Forskolin and 42.74 % Forskolin
cAMP response (% Forskolin) ([2]; Log[C3a (M)] -9): 95.96 % Forskolin and 92.86 % Forskolin and 104.37 % Forskolin and 97.87 % Forskolin
cAMP response (% Forskolin) ([2]; Log[C3a (M)] -10): 102.35 % Forskolin and 93.68 % Forskolin and 104.69 % Forskolin and 98.88 % Forskolin
cAMP response (% Forskolin) ([2]; Log[C3a (M)] -11): 98.97 % Forskolin and 94.82 % Forskolin and 109.09 % Forskolin and 99.84 % Forskolin
cAMP response (% Forskolin) ([2]; Log[C3a (M)] -12): 103.44 % Forskolin and 97.11 % Forskolin and 100.69 % Forskolin and 103.75 % Forskolin
pEC50 Value ([3]; Figure EV1A numerical data, curve fit): 8.52
ΔBRET (ligand-vehicle) ([3]; Log[ligand (M)] -7): 0.032 and 0.030 and 0.024 and 0.026
ΔBRET (ligand-vehicle) ([3]; Log[ligand (M)] -8): 0.029 and 0.025 and 0.020 and 0.022
ΔBRET (ligand-vehicle) ([3]; Log[ligand (M)] -9): 0.010 and 0.009 and 0.006 and 0.007
ΔBRET (ligand-vehicle) ([3]; Log[ligand (M)] -10): 0.00235 and 0.00134 and 0.00248 and 0.003
ΔBRET (ligand-vehicle) ([3]; Log[ligand (M)] -11): 0.000317 and 0.00116 and 0.00278 and 0.00544
ΔBRET (ligand-vehicle) ([3]; Log[ligand (M)] -12): 0.000368 and 0.000727 and 0.00354 and 0.006
Span Value ([3]; span of ΔBRET curve, Figure EV1A numerical data): 0.027
Mean Diff. of pIC50, WT vs. S26A [4, 5]: 0.018
ΔpIC50 ± SE of Diff. ([4]; S26^1.35A relative to WT C3aR): -0.018 ± 0.007
IC50 ([4]; S26^1.35A, dose-response plot, read-out: IC50): 2.4 nM
pIC50 (Replicate) ([4]; S26^1.35A, individual replicates): 8.46 and 8.90 and 8.92 and 8.44
pIC50 ± SEM (Mean) ([4]; S26^1.35A, mean of independent experiments): 8.68
cAMP response (% Forskolin) ([4]; Log[C3a (M)] -7): 6.63 % Forskolin and 16.74 % Forskolin and 7.89 % Forskolin and 6.95 % Forskolin
cAMP response (% Forskolin) ([4]; Log[C3a (M)] -8): 10.18 % Forskolin and 21.44 % Forskolin and 11.61 % Forskolin and 10.34 % Forskolin
cAMP response (% Forskolin) ([4]; Log[C3a (M)] -9): 93.63 % Forskolin and 62.67 % Forskolin and 56.93 % Forskolin and 99.13 % Forskolin
cAMP response (% Forskolin) ([4]; Log[C3a (M)] -10): 100.97 % Forskolin and 93.52 % Forskolin and 93.48 % Forskolin and 106.03 % Forskolin
cAMP response (% Forskolin) ([4]; Log[C3a (M)] -11): 99.94 % Forskolin and 102.62 % Forskolin and 98.56 % Forskolin and 106.48 % Forskolin
cAMP response (% Forskolin) ([4]; Log[C3a (M)] -12): 101.64 % Forskolin and 96.07 % Forskolin and 97.79 % Forskolin and 99.89 % Forskolin
